Source: patent publication US20160222079A1 (GENOR BIOPHARMA, published 2016)

T1: GLP-1 receptor (GLP-1R) on the surface of mouse beta pancreatic tumor cells β-TC-6 (mouse, UniProt O35659 22-463)
T1 construct: whole, on cells; Endogenous receptor of the mouse cell line
T1 sequence (looked up): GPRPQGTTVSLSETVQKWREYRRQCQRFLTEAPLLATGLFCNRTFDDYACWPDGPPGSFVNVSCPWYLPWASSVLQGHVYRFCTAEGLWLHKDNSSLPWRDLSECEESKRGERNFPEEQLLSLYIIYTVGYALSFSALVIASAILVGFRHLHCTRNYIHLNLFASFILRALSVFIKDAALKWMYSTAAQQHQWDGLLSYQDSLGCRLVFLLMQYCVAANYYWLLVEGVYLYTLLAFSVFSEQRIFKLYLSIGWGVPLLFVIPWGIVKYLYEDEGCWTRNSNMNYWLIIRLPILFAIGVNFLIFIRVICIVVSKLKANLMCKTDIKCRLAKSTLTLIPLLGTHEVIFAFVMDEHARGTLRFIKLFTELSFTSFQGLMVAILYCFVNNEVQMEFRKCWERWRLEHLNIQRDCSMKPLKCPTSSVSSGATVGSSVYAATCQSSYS

B1: GLP-1-Fc-1 fusion protein (Fc fusion)
chain: HGEGTFTSDVSSYLEEQAAKEFIAWLVKGGGGGGGSGGGGSGGGGSVECPPCPAPPVAGPSVFLFPPKPKDTLMISRTPEVTCVVVDVSHEDPEVQFNWYVDGVEVHNAKTKPREEQFNSTFRVVSVLTVVHQDWLNGKEYKCAVSNKGLPAPIEKTISKTKGQPREPQVYTLPPSREEMTKNQVSLTCLVKGFYPSDIAVEWESNGQPENNYKTTPPMLDSDGSFFLYSKLTVDKSRWQQGNVFSCSVMHEALHNHYTQKSLSLSPGK
notes: also called GLP-1-Fc (IgG2)
B2: GLP-1-Fc-3 fusion protein (Fc fusion)
chain: HGEGTFTSDVSSYLEEQAAKEFIAWLVKGGGGGGGSGGGGSGGGGSVECPPCPAPPVAGPSVFLFPPKPKDTLMISRTPEVTCVVVDVSHEDPEVQFNWYVDGVEVHNAKTKPREEQFNSTFRVVSVLTVVHQDWLNGKEYKCKVSNKGLPAPIEKTISKTKGQPREPQVYTLPPSREEMTKNQVSLTCLVKGFYPSDIAVEWESNGQPENNYKTTPPMLDSDGSFFLYSKLTVDKSRWQQGNVFSCSVMHEALHNHYTQKSLSLSPG
notes: also called GLP-1-Fc (IgG2)
B3: GLP-1-Fc-2 fusion protein (Fc fusion)
chain: HGEGTFTSDVSSYLEEQAAKEFIAWLVKGGGGGGGSGGGGSGGGGSERKCCVECPPCPAPPVAGPSVFLFPPKPKDTLMISRTPEVTCVVVDVSHEDPEVQFNWYVDGVEVHNAKTKPREEQFNSTFRVVSVLTVVHQDWLNGKEYKCKVSNKGLPAPIEKTISKTKGQPREPQVYTLPPSREEMTKNQVSLTCLVKGFYPSDIAVEWESNGQPENNYKTTPPMLDSDGSFFLYSKLTVDKSRWQQGNVFSCSVMHEALHNHYTQKSLSLSPG
notes: also called GLP-1-Fc (IgG2)

biological target: T1, GLP-1 receptor (GLP-1R) on the surface …; experiment: cell ELISA on fixed β-TC-6 cells, anti-human IgG-HRP detection

Binding result, binds:
B1
B2
B3
